The record followed here is patent US20250215412A1 (NOVOZYMES A S, published 2025).

Substitutions are numbered along the chain they refer to. Numbers in names are those of the source.

Holding throughout (test): cell-based or functional assay
For experiment [1], the target named is T1, Chryseobacterium sp-62563 deamidase Q126K (Chryseobacterium sp-62563).
T1 sequence: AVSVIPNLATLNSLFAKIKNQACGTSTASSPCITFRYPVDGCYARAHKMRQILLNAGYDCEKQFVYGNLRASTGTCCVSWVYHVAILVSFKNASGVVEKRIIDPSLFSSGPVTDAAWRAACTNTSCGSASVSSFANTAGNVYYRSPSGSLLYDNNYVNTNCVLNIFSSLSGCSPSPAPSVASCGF

The target in experiment [2] is T2, Chryseobacterium sp-62563 deamidase Q160N (Chryseobacterium sp-62563).
T2 sequence: T1 sequence with K17Q, Q51N

Experiment [3] concerns the target T3, Chryseobacterium sp-62563 deamidase V190G (Chryseobacterium sp-62563).
T3 chain: T1 sequence with K17Q, V81G

Experiment [4] addresses T4, Chryseobacterium sp-62563 deamidase V190M (Chryseobacterium sp-62563).
T4 chain: T1 sequence with K17Q, V81M

Experiment [5] deals with T5, Chryseobacterium sp-62563 deamidase V190Q (Chryseobacterium sp-62563).
T5 chain: T1 sequence with K17Q, V81Q

In experiment [6] the target is T6, Chryseobacterium sp-62563 deamidase V190Y (Chryseobacterium sp-62563).
T6 chain: T1 sequence with K17Q, V81Y

In experiment [7] the target is T7, Chryseobacterium sp-62563 deamidase Y252S (Chryseobacterium sp-62563).
T7 chain: T1 sequence with K17Q, Y143S

Experiment [8] deals with T8, Chryseobacterium sp-62563 deamidase S256D (Chryseobacterium sp-62563).
T8 chain: T1 sequence with K17Q, S147D

Experiment [9] deals with T9, Chryseobacterium sp-62563 deamidase L260E (Chryseobacterium sp-62563).
T9 chain: T1 sequence with K17Q, L151E

The target in experiment [10] is T10, Chryseobacterium sp-62563 deamidase L260K (Chryseobacterium sp-62563).
T10 chain: T1 sequence with K17Q, L151K

Experiment [11] concerns the target T11, Chryseobacterium sp-62563 deamidase T268I (Chryseobacterium sp-62563).
T11 chain: T1 sequence with K17Q, T159I

For experiment [12], the target named is T12, Chryseobacterium sp-62563 deamidase P285D (Chryseobacterium sp-62563).
T12 chain: T1 sequence with K17Q, P176D

B1: Chryseobacterium sp-62563 propeptide F99A (protein)
chain: NQDPNLVAKESNETAMKDFGKTVPVGIEKEDGKFKISFMVTAQPYEIKDSKENAAYISMIKTAVENETPIHVFLKANTNEIAKVDKATDDDIRYFKSVATKEVKEENRK
In the case of B1, the Relative activity of maturated deamidase (% initial rate) in [1] and in experiment [2] was greater than 100 in each case.

B2: Chryseobacterium sp-62563 propeptide (first polypeptide, propeptide domain), wildtype (other)
chain: B1 chain with A99F
For the molecule B2, the “NanoDSF thermal unfolding temperature” value in experiment [3] stood at 78 ° C; in [4], 82 ° C; in [5], 75.8 ° C; in [6], 81.5 ° C; in [7] it was 73.4 ° C; in experiment [8], 81.5 ° C. Besides, the “NanoDSF thermal unfolding temperature” value in experiment [9] is 72.6 ° C; in experiment [10], 75.5 ° C; in experiment [11] it was 76.2 ° C; in [12] it was 65.8 ° C.
